Laboratory results: the DeepSol protein solubility set

assay: soluble on expression in E. coli; label from the status in PepcDB or PDB records

Soluble on expression in E. coli, not soluble:
MGSDKIHHHHHHMNLPSILVIDDLPDNFDVIETLLSEQDYTLHYVASGQEAIASLNLFQPDLILLDVMMPGMDGIEVCQRIKAMPQWQSVPIIMVTALTAKEDLARCLKSGADDFISKPINALELRARLHSMLRIKQQYDKIQTLSNIQTSTIKVLESTLDELRGNLAAALPHELNTPLNGIVGTISILMADIENMDTGEIQELLGWVDLSARNLERLIKQLLLYLELELSTNQQQNIASESTHFSIAVIEAILQSHAPSVNRRDDLMFAIEEAEVSISARYLAIIIYELVDNALKFSRRGTTIKISSQVVAGMLNVYIHDFGRGMTEEQISKIGAFMQFERKTYEQQGIGMGLKLAKQIIESHGGLFSISSVYKKETMVHIALPIAYSRYLS
MGSDKIHHHHHHMNLRQLYYFKKLAEKEHYTIAAAELSITQPSLSHSIAELERELGVYLFEKQGRNIRLTKYGRFYLTYVEKSLAELEKGEKLLHELTSPSHGNIDLGFIYTMGAHTVPELVQNFTKAENHKDITFSFYQGATKSIIPDLKNEKFDLAICSYVENEPDIEFLPLTKQELVIVVAENHPLAKYDSIDLKDTADYSYIFFSDTSGLRPLIDSLFAEINIQPKIGCYVEEDTAMVGLVSVDYGISIMPKISSLAHYNVKVLSINEPKHERFIYLASLKNHYISPASKAFKDFALRYGEKHFL
MGSDKIHHHHHHMNLSRVGKHGTGMWNYSKNIADMLHESGFLDSIICSKDHVEYFSNRYKDPKVDIIITPEIVSNTMKVSKFRPLIWLSYSYFLGCKLVLSKKKKDVALLSTTHHSIPFFKNQFITIHDLRPAFYPDSKLQEIYFSHYLPRKVKELRGVFTVSETVKNEIEEHMGVARSDIQVVYNSVDPSLRPDGTDNSEQATIKNTFLMVGASWKHKNAHSFLKNFLAYHKDNYSAVIVCGQTDYFDELKSLVATLGLENNVTFKHHISEQELSSLYKTSFALVYPSLSEGFGIPPIEAMSLSLPVIVSDIPVFKEILGEAAVYVDPNVRESWEHAVDTLKVSRENVIDTGLQRVNLYSYERCKDMLMLALNNINEKSR
MGSDKIHHHHHHMNLTIRQFRAFLAVADLRSFTAASKYLCITQGAVSGLINEMESQMEVSLFDRTSRVVKLSPDGEKFLPAAMRVVEEFQRAENYARDLKEIKKSLVRVVGAPLIACAFLPQIIHAFKRQHPHTHVQLIDKPMSQLQKSIMLGEADFGIGPERPLEPEIDKQTLFTTEIALYCHPDYRLHKKTVRWEEIQSEELIAVGNESIPMISATAGVRIKPKMTVEHMATAMSLAAQCEGVVIAGTFSRHYAKSYQLATCSLTPPLRRNMNLYFHAWRAQTPATQRFRDFLFSYVDEHHDAPANQR
MGSDKIHHHHHHMNNEFYNQGLEKAKQRDYAGAIEEFSRALKLTPYFAEAYLQRGLAYYDSGAILLAVSDYTEVIRINPESVEAYYCRSLARLALKNLPGALEDVEQAIRLNINYAAAHHLRGTVRRKQGYIQDAIASFKQAAELYLQQKDQENCRLCLEKIKQLQPPKQSTIQPTKSPIAPITSVNEYFTQLLDKAEQGDTREAIADLNWILQADPQDAQAYCCRGVVRCKMGNYREAIADFNQALQLNFQDAVVYRNRGKARSLLGDHRGAIADFNQAIQIQPEDTLGYVARGNTYRAMGNYLGAIQDYGKALQINPHDAQAYYNRGIAYTFLEEMQNAVEDYQRAASIFCEQQDWENYQLTQDSLKQIQTSIPEYKQQKSNVLRQKLLRLVGGYWEIAQRLIQQQKDYQPGMSEEWYMQKVIDDLERDRGR
MGSDKIHHHHHHMNNIGLILEGGGMRGVYTAGVLDFFMDKNLYFPYVSGVSMGACNAASYVSKQRGRTKSVTVDLADDSRYISLKNFIKYKSIFGMDFIFDEVPNKLFPFDFNTFSNSTQKLVIGTTDCLTGKEVYFSHSSSNDILDIIRASSSLPFISEPVKINNYTLMDGGIADPIPIKRSIEDGNAKNVLILTREADYIKNPFKHNWILSKKYSQFKGLCKAILNRHKLYNETLKYISHLENTGKVFIIRPTFSPKVKRIEKNKSRLNALYLEGYKDAEKNYDKLLQFLNSN
MGSDKIHHHHHHMNNLDIKTLGQVFTPKKIVDFMLTLKHNHGSVLEPSAGDGSFLKRLKKAVRIEIDPKICPKNALCMDFFDYPLENQFDTIIGNPPYVKHKDIAPSTKEKLHYSLFDERSNLYLFFIEKAIKHLKPKGELIFITPRDFLKSTSSVKLNEWIYKEGTITHFFELGDQKVFPNAMPNCVIFRFCKGNFSRITNDGLQFLCKKGILYFLNQSYTQKLSEVFKVKVGAVSGCDKIFKNEKYGNLEFVTSITKRTNALEKMVFVNEPNDYLLQHKDSLMQRKIKKFNENNWFEWGRMHHISPKKRIYVNAKTHQKNPFFIHQCPNYDGSILALFPYNQNLDLQNLCDKLNAINWQELGFVCGGRFLFSQRSLENALLPKDFLNLG
MGSDKIHHHHHHMNNLFDRIASRYVDGAEVFYGWMNMSLNQIKRAKKLGIKTIVECASSHPLYQLKILEEEYQKWNIPFKVGSQKIYLKALKEIKEADFIKIPSDFVQETFIKNGIPEEKLIKIPFGVDLEKFQPKDNYNNEIFRAVFVGTVSIRKGIPYLLKAWSELNLKDAQLYVVGAISPDVKIIIAKYSKLKNIIFTGRVKDIVPILRESNVFVFPSIEEGSALVTYEAMASGLPSIVTYNSGSIVRHGKDGFVIPIRDIKSLKDGIQYFYENPSEVKRMGKNARKHVEKYTWYNYGENLYNELKRLGLL
MGSDKIHHHHHHMNNSASEQKWKWWPLLPLYPYGRRRTIFRELVPNQIWSFEQLQGIYYVAVPVRLLVIRVKNELMIINPLPPTSELLKEIDLLQKKIGPVKTIVLPTASGLEHKIGLPALARAFPNAKIWLCPGQWSFPFQLPFDWLGIPSNRTNILLADGFPHGDDCEWISLGPIDIGLARFQEISCFHKPTKSLLVTDALVGIEATPPELFNLDPTPLLFHSREKGSEELIDSPIARRKGWLRLVLFASYLKPEKLEIPKIKEILENSFKPKMRNKRSHFGIYPFAWQEGWDLSAKKLVGEKTPLIQIAPVIERLVFPRGKKAFISWLNKIESLKGISFLISAHYSGKVRFTTNEIRALKVKIDNSNWEKTQGDFKFLSWFDQKLLNFGIVPKNPLKKFSD
MGSDKIHHHHHHMNNTRSAYEKIIKDLQGVGFSDYEAKTYIALLLTPNATAYEISKEAGIPKANCYSVLEALRKNGAVQAVSENPVKYVAVDPNRYFNQMVELTQLRCEDLKESLKNIGHLPQEDLVWSLNDAAAVGLHIEKMIGSARDTIRIKAADTTLEPHLPSLKKAARRGVKVLIILFGEDVRPFELGKNCKVYLHEGNGIRVGISHKLITVTRDYKEALVAEVGRDAYGSYTENKPIVTLADSLLRHEIYFAEIFSCFGDEIQEKFGPALVKLRESYLPADQADALKVFLETADPARLAGKATAA
MGSDKIHHHHHHMNNYNDTIRNLDNIVYKPNNLMITNVKEEKQNAEYAGCIFHLNNKTIRFRKSKITPNKIGQFVSFWEKGDNMQNQAFSYNAAPDLLVITCIDDNKLGQFIFPKEILLKEKILRTENQKGKMAMRIYPIWDTPVSNQAKKSQLWQIQYFVDLSNHNNLTIDELLNLYS
MGSDKIHHHHHHMNQPDAYLWEQHIPGGCHWSGILRRGTTLRMTDVSGGANASVLFFNQEEKLERYNMADTLKSQHTFRLTKGHACHSDMGRIFCCITADSAGWHDTVCGLSDADLIRRKYGTARYQEHRNQMFRNGLDGMLIELGKWGLGMRDVVSNINFFSKVTANSAGELTFHSGNSKAGDHVDLSFEMDTLVVLSAAPHPLDPSTTYQPGAVNLAAFATPSSAIAECAHISENQRARQNTECLYACHGGAA
MGSDKIHHHHHHMNQTLRIGSGAAWWGDRVEPAALNAEHGALDYLCFETMAEATVSAAQVRLRRDSSFAGYDTYLDERMRAVLPACMRHGTRIISNQGWINPTGAAERIVQLLRDAGQHGVRVAAVCGSLITDRVLELADRVLENGAPVRSLAPDLISAEVYLGAEPIVAALRAGAQIVVTGRVADPSIFLAPMMHGFGWDPLDHERVGAGSAIGHLLECGAQVTGGYFCDPGFKELPEPWNFAFPIAEVQSDGTAVITKVAGSGGGVTLQTVKEQMLYEVHDPANYLTPDVVVDFTQARLEQIGPDRVRVTGLTGKPRTPTLKVTIGCAEGFIGEDMFFYAGPGALRRAQWARKILQERFRIVQLQAEELRIDFLGLNAIHGAATPADAVEPYEVAVRVAARTKTRAEAAKVGREVDGMAVSGIAHTGKRVPHQERWREVIGLWSALVPREAVPAHICYFES
MGSDKIHHHHHHMNSEASENRPAHSATGTLWSWHGGNGALIWQLMFSSDAVMGIKRFPQERKAAFFCLESSTGRVLRDDFVLTAGDENETPVGDGWMIGLETVHGSRLVCHTYQPGSPEHLGIWAINLPEARVVWSRPDLTFTANLGDAFLAYRSIVFAGFPERDYVLIDPLSGCELEHLGTAHERPNQLRDAAQSEEERQRILLPDTVFDEAGHVENINHGATSVTVFHRMEPVAEGVPGWVSTLSVSECERLVHEDVMASGEPMPVFNSFLIKDDRLYYIREREFLVSFVVS
MGSDKIHHHHHHMNSMLNILEEISSRIKRPLITLLLFKYLRSVKRLECKNGQIIEIDDPSKYFISDLVYVCDVFKHFKSIKVRNGKVILDGIPFRPSELRYIGDVIEKLKLRVGSNFIAEFIYNGRIVKFRLAMTSKGVTGVFSLYEMFVREDYKVFDYKGKTVLDVCGFIGDSALFFALNDAKKVVSFEPQREAYELLVENVKLNEFDNIIVAINEAVGEKDSMVEFLIPDEFSLGASRYIRAGKKTSVKVRDIIRVMNEFKPDIIKLDCEGCEYGIIDKLLKTGRIYDVEGLVVEFHDTPEVKRWDYIRSLPFDVAIISDNPHWKVTVVSIRVMQNDAPRHI
MGSDKIHHHHHHMNSNFLSSYPRDVIAVLVKDDQPLEQPKCNVRLAEFTYATVGVNGEPTTASAAMLVPGGPQCQGPYPLLGWGDGTQTLRRDEMAKDIRDAKGNDPLVTHLASQGYVVVSTDYLGLGKSSYPFHPYLHSATEANAMIDALRAARTVLDRLNTPLSGKVMLSGYSVGGHAAMASQREIEAHLSKEFNLVASAPIAGPYALEQTFVDSWSGRNTVGESTFGLVLASYAIVGMQHAYQNIYTAPSQVFRAPWAATVESQFPGTKSLLDLFVDLPEIGKVKQYFQADFYRDFASNPNNPFRKDLARNDLLDWRPRTKTLLCGSSNDATVPLKNATTAIAAFEQRGSTQVSLVDLGTGKASDNSAGEHLAIKDSCIVAVRQQLLDKQR
MGSDKIHHHHHHMNSVVNFRDIGGFPTQQGTVVKTGYFFRSGELVNVAQADQQKLVEDYQIKRIYDFRSAAETQERPDDSIQGTNYLHIDILADIQAQTASLEGMLKTVGSPDEAMDMAYKEMVLSNSGRKGYQTFFENFLSYPQEAILFHCFAGKDRTGIGAALILSALGVEHSYILEDYLKTNEQRKTANEQIIAQYQANGTPLAEIQQLETLLYVKKEYLATALQAIEKEFGSVEGYLKEGLGLPLSAKKDMLSLYTKS
MGSDKIHHHHHHMNTKNYFIIGGTGGIGKAMVEQLLQTATNEHASTGMNNDTGIRVFATYHKSIPDFEADNLYWIAMDICDEQSIKHAVDTIKQQTTHIDWVINCAGLLHTKAQQPEKALQQLESEFFLQNMQVNALASLLIAKHIKPLLAKAERSADKPAIFATISARVGSISDNQLGGWYSYRMSKAALNMGMKNLSIEWSRSLKDVCVVVMQPGTVNTQLSAPFQGNVADGQLFSPTYSAECLLEVLSKMSAAQSGSFVDWAGESIPW
